Reference: US20160054331A1

Molecular target: Hexa-His tag amidated peptide HHHHHH-CONH2
Test: peptides on microspheres, PE anti-mouse IgG, Luminex

“anti-C-term His tag antibody 3D5 (Invitrogen, Carlsbad, Calif.)” was tested, and the binding remaining after amidation of the C terminus (percent) was < 15%.
